Measured values taken from paper PMC5653232 (Cell reports, 2017).

Experiments:
Cy3-Cy5-H3K9Cme3-NCP = test: FRET nucleosome unwrapping, Cy3-Cy5-H3K9Cme3-NCP; assay type: biochemical, human
CHD3 PHD1/2 = test: Tryptophan fluorescence, linked CHD3 PHD1/2 with histone H3 peptides; assay type: binding; settings: either peptide; apparent Kds measured by tryptophan fluorescence
H3K9Cme3-NCP = test: Fluorescence polarization, CHD3 PHD1/2 with H3K9Cme3-NCP; assay type: binding, human; settings: read-out: apparent dissociation constant Kd (H3K9Cme3-NCP), 5 nM nucleosomes, 15 mM Tris pH 7.5, 75 mM NaCl, 0.00625% Tween20, 3 mM DTT, three separate experiments

B1: CHD3 PHD1/2: natively linked tandem PHD fingers of CHD3, construct PHD1/2 (373–508) (protein)
chain: GYETDHQDYCEVCQQGGEIILCDTCPRAYHLVCLDPELDRAPEGKWSCPHCEKEGVQWEAKEEEEEYEEEGEEEGEKEEEDDHMEYCRVCKDGGELLCCDACISSYHIHCLNPPLPDIPNGEWLCPRCTCPVLKGR
modifications: left off: GST, end not stated, cleaved
- change in FRET efficiency by CHD3 PHD1/2 without LA (Cy3-Cy5-H3K9Cme3-NCP; CHD3 PHD1/2 up to 300 µM): no measurable change in the FRET efficiency
- change in FRET efficiency by CHD3 PHD1/2 with LA (Cy3-Cy5-H3K9Cme3-NCP; LA at a concentration equivalent to the LA S1/2): reduced substantially
- fold stronger binding of linked PHD1/2 than unlinked individual domains (CHD3 PHD1/2): ~10^2 fold
- Kd (H3K9Cme3-NCP): 1400 nM
